Experimental data taken from patent US20080113907A1, “Uses Of Galectin-2” (Charite-Universitat-Smedizin Berlin, priority 2004, published 2008).

System: CD3, CD7, β1 integrin
Test: Magnetic separation / co-immunoprecipitation of galectin containing complexes
Assay type: binding, human
Conditions: galectin coated beads, immunoblot for CD3, CD7, β1
Protocol: For immunoblotting cells were washed in PBS, and lysed in cell lysis buffer (1% Triton-X, 0.5% NP-40, 0.1% SDS, 0.5% sodium deoxycholate, 5 mM EDTA, 50 mM and 50 mM protease- and phosphatase-inhibitor cocktail 2, 1 mM PMSF, 100 μg/ml trypsin-chymotrypsin inhibitor, 100 μg/ml chymostatin in PBS). The concentration of proteins in each lysate was measured using the Bio-Rad protein assay (Bio-Rad Laboratories, Hercules, Calif.). Equivalent amounts of protein (10 μg) were fractionated on a 10-20% Tris-glycine gel and electrotransferred to a nitrocellulose membrane (Novex, San Diego, Calif.). Membranes were blocked with 5% milk in 0.1% Tween 20-PBS (Fisher Scientific, Hanover Park, Ill.), followed by incubation for 60 m in at room temperature with the indicated primary antibody. The membranes were washed six times with 0.1% Tween 20-PBS and then incubated for 1 h with the appropriate horseradish peroxidase-conjugated secondary antibody (Santa Cruz Biotechnology), washed, and incubated with the chemiluminescent substrate (Perkin-Elmer, Carlsbad, Calif.) for 5 minutes. The membranes were then exposed to film (Amersham, Arlington Heights, Ill.). […]

B1: galectin-2: β-galactoside binding lectin, non-covalent dimer with subunits of about 14 kDa; recombinant human or rat (SEQ ID NO:1, 2) (protein)
chain: MAGELEVKNMDMKPGSTLKITGSIADGTDGFVINLGQGTDKLNLHFNPRFSESTIVCNSLDGSNWGQEQREDHLCFSPGSEVKFTVTFESDKFKVKLPDGHELTFPNRLGHSHLSYLSVRGGFNMSSFKLKE
- glycoproteins co-immunoprecipitated: coimmunoprecipitate only with integrin β1
